Data: US20100298542A1 (Chugai, published 2010)

B1: WT-M14ΔGK (humanized PM-1 variable region, M14ΔGK constant region) (antibody)
heavy: QVQLQESGPGLVRPSQTLSLTCTVSGYSITSDHAWSWVRQPPGRGLEWIGYISYSGITTYNPSLKSRVTMLRDTSKNQFSLRLSSVTAADTAVYYCARSLARTTAMDYWGQGSLVTVSSASTKGPSVFPLAPSSKSTSGGTAALGCLVKDYFPEPVTVSWNSGALTSGVHTFPAVLQSSGLYSLSSVVTVPSSNFGTQTYTCNVDHKPSNTKVDKTVERKSCVECPPCPAPPVAGPSVFLFPPKPKDTLMISRTPEVTCVVVDVSHEDPEVQFNWYVDGVEVHNAKTKPREEQFNSTFRVVSVLTVVHQDWLNGKEYKCKVSNKGLPSSIEKTISKAKGQPREPQVYTLPPSREEMTKNQVSLTCLVKGFYPSDIAVEWESNGQPENNYKTTPPVLDSDGSFFLYSKLTVDKSRWQQGNVFSCSVMHEALHNHYTQKSLSLSP
light: DIQMTQSPSSLSASVGDSVTITCQASQDISSYLNWYQQKPGKAPELLIYYGSELHSGVPSRFSGSGSGTDFTFTISSLEAEDAATYYCQQGNSLPYTFGQGTKVEIE
notes: copies: 2 + 2
B2: WT-M44 (humanized PM-1 antibody, IgG1 constant region with alanine at position 434, EU numbering) (antibody)
heavy: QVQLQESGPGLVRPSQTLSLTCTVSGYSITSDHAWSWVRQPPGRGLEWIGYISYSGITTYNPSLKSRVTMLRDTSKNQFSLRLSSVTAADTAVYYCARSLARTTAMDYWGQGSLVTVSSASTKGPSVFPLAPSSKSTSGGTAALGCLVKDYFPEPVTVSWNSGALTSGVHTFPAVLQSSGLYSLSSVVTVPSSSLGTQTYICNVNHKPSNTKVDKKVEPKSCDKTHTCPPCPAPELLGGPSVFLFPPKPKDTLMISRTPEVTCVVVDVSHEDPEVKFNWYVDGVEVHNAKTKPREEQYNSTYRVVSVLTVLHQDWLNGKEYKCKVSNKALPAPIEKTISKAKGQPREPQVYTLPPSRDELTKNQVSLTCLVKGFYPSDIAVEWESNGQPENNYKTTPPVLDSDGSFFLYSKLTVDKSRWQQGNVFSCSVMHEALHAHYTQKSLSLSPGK
light: DIQMTQSPSSLSASVGDSVTITCQASQDISSYLNWYQQKPGKAPELLIYYGSELHSGVPSRFSGSGSGTDFTFTISSLEAEDAATYYCQQGNSLPYTFGQGTKVEIE
notes: copies: 2 + 2
B3: WT-M58 (humanized PM-1 variable region, M58 constant region) (antibody)
heavy: QVQLQESGPGLVRPSQTLSLTCTVSGYSITSDHAWSWVRQPPGRGLEWIGYISYSGITTYNPSLKSRVTMLRDTSKNQFSLRLSSVTAADTAVYYCARSLARTTAMDYWGQGSLVTVSSASTKGPSVFPLAPSSKSTSGGTAALGCLVKDYFPEPVTVSWNSGALTSGVHTFPAVLQSSGLYSLSSVVTVPSSNFGTQTYTCNVDHKPSNTKVDKTVERKSCVECPPCPAPPVAGPSVFLFPPKPKDTLMISRTPEVTCVVVDVSQEDPEVQFNWYVDGVEVHNAKTKPREEQFNSTFRVVSVLTVVHQDWLNGKEYKCKVSNKGLPAPIEKTISKTKGQPREPQVYTLPPSQEEMTKNQVSLTCLVKGFYPSDIAVEWESNGQPENNYKTTPPMLDSDGSFFLYSKLTVDKSRWQEGNVFSCSVMHEALHNHYTQKSLSLSP
light: DIQMTQSPSSLSASVGDSVTITCQASQDISSYLNWYQQKPGKAPELLIYYGSELHSGVPSRFSGSGSGTDFTFTISSLEAEDAATYYCQQGNSLPYTFGQGTKVEIE
notes: copies: 2 + 2
B4: WT-M73 (humanized PM-1 variable region, M73 constant region) (antibody)
heavy: QVQLQESGPGLVRPSQTLSLTCTVSGYSITSDHAWSWVRQPPGRGLEWIGYISYSGITTYNPSLKSRVTMLRDTSKNQFSLRLSSVTAADTAVYYCARSLARTTAMDYWGQGSLVTVSSASTKGPSVFPLAPSSKSTSGGTAALGCLVKDYFPEPVTVSWNSGALTSGVHTFPAVLQSSGLYSLSSVVTVPSSNFGTQTYTCNVDHKPSNTKVDKTVERKSCVECPPCPAPPVAGPSVFLFPPKPKDTLMISRTPEVTCVVVDVSQEDPEVQFNWYVDGVEVHNAKTKPREEQFNSTFRVVSVLTVVHQDWLNGKEYKCKVSNKGLPAPIEKTISKTKGQPREPQVYTLPPSQEEMTKNQVSLTCLVKGFYPSDIAVEWESNGQPENNYKTTPPMLDSDGSFFLYSKLTVDKSRWQEGNVFSCSVMHEALHAHYTQKSLSLSP
light: DIQMTQSPSSLSASVGDSVTITCQASQDISSYLNWYQQKPGKAPELLIYYGSELHSGVPSRFSGSGSGTDFTFTISSLEAEDAATYYCQQGNSLPYTFGQGTKVEIE
notes: copies: 2 + 2

Key:
[1] = biological target: T1, soluble human FcRn (complex of FcRn extracellular domain and β2-microglobulin) (human, UniProt P55899 24-290; P16213 21-119); test: SPR (Biacore 3000), antibody captured on Protein L or anti-human kappa antibody, human FcRn as analyte, pH 6.0, steady state affinity
T1 construct: The stated ranges are those of the expressed constructs and contain the signal regions; Expressed in HEK293H cells, purified on IgG Sepharose and HiTrap Q; also called hFcRn
Protocol: (§1) The binding to human FcRn was assessed using Biacore 3000. […] Human FcRn was then injected and the binding of the human FcRn to antibody was assessed. The affinity was computed using BIAevaluation Software. The obtained sensorgram was used to calculate the amount of hFcRn bound to the antibody immediately before the end of human FcRn injection. The affinity of the antibody for human FcRn was calculated by fitting with the steady state affinity method.

[2] = biological target: T1, soluble human FcRn (complex of FcRn …); test: SPR (Biacore 3000), human FcRn, pH 6.0, steady state affinity
Protocol: as §1

[3] = biological target: T1, soluble human FcRn (complex of FcRn …); test: SPR (Biacore 3000), method of Example 6: captured antibody, human FcRn as analyte, pH 6.0, steady state affinity
Protocol: as §1

T1 sequence (P55899 24-290 limits assumed, chain 1 of 2): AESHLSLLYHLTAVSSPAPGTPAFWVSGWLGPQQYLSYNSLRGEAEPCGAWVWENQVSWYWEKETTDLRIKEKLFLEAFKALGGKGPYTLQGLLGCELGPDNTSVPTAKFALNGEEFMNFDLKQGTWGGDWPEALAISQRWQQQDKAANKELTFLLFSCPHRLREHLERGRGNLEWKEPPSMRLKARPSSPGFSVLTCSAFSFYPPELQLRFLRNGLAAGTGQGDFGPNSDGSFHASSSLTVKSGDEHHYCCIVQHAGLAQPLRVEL
T1 sequence (P16213 21-119 limits assumed, chain 2 of 2): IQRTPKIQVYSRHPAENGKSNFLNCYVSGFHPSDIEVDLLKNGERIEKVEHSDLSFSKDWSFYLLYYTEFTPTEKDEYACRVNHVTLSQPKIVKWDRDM

Binder | Kd [1] [nM] | binding as a multiple of that of WT-IgG1 [2] | Kd [3] [nM]
B1 | 1850 | – | –
B2 | 590 | ~2.7 times that of WT-IgG1 | –
B3 | 1170 | ~1.4 times that of WT-IgG1 | 1030
B4 | 420 | ~3.8 times that of WT-IgG1 | –
